Data reported in the RNAGym collection of RNA variant scans (doi:10.1093/molbev/msab373).

B1: Azoarcus group I ribozyme (parent)
chain: GUGCCUUGCGCCGGGAAACCACGCAAGGGAUGGUGUCAAAUUCGGCGAAACCUAAGCGCCCGCCCGGGCGUAUGGCAACGCCGAGCCAAGCUUCGGCGCCUGCGCCGAUGAAGGUGUAGAGACUAGACGGCACCCACCUAAGGCAAACGCUAUGGUGAAGGCAUAGUCCAGGGAGUGGCGAAAGUCACACAAACCGG

Variants of: B1
Experiment: reverse-splicing fitness (ratio to wild type); higher = more active; in vitro selection; Mg2+ level not given
Summary of the method: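 An in vitro group I ribozyme library with randomized positions was T7-transcribed and gel-purified. In triplicate, 10 pmol RNA in EPPS pH 7.5 was reacted with 50 pmoles of a 30-nt RNA substrate for 1 h at 37 °C across several added MgCl2 levels (1–48 mM), then stopped with EDTA. Products were reverse transcribed from a substrate-complementary primer, PCR-amplified and sequenced (HiSeq 4000). Fitness is a variant's read proportion after selection over that before, normalised to wild type.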

Variant | reverse-splicing fitness
GUGCCUUGCGCCGGGAAACCACGCAAGGGAUGGUGUCAAAUUCGGCGAAACCUAAGCGCCCGCCCGGGCGUAUGGCAACGCGGAGCCAAGCUUCGGCGCCUGCGCCGAUGGAGGUGUAGCGACUAGACGGCACCCACCUAAGGCUAACGUUAUGGUGAAGGCAUAGUCAAGGGAGUGGCGAAAGUCACACAAACCGG [C82G A111G A120C A145U C150U C169A] | 0.01
GUGCCUUGCGCCGGGAAACCACGCAAGGGAUGGUGUCAAAUUCGGCGAAACCUAAGCGCCCGCCCGGGCGUAUGGCAACGCGGAGCCAAGCUUCGGCGCCUGCGCCGAUGGAGGUGUAGCGACUAGACGGCACCCACCUAAGGCUAACGUUAUGGUGAAGGCAUAGUCGAGGGAGUGGCGAAAGUCACACAAACCGG [C82G A111G A120C A145U C150U C169G] | 0.0094
GUGCCUUGCGCCGGGAAACCACGCAAGGGAUGGUGUCAAAUUCGGCGAAACCUAAGCGCCCGCCCGGGCGUAUGGCAACGCGGAGCCAAGCUUCGGCGCCUGCGCCGAUGGAGGUGUAGCGACUAGACGGCACCCACCUAAGGCUAACGUUAUGGUGAAGGCAUAGUCCAGGGAGUGGCGAAAGUCACACAAACCGG [C82G A111G A120C A145U C150U] | 0.0494
GUGCCUUGCGCCGGGAAACCACGCAAGGGAUGGUGUCAAAUUCGGCGAAACCUAAGCGCCCGCCCGGGCGUAUGGCAACGCGGAGCCAAGCUUCGGCGCCUGCGCCGAUGGAGGUGUAGCGACUAGACGGCACCCACCUAAGGCUAACGGUAUGGUGAAGGCAUAGUCCAGGGAGUGGCGAAAGUCACACAAACCGG [C82G A111G A120C A145U C150G] | 0.0127
GUGCCUUGCGCCGGGAAACCACGCAAGGGAUGGUGUCAAAUUCGGCGAAACCUAAGCGCCCGCCCGGGCGUAUGGCAACGCGGAGCCAAGCUUCGGCGCCUGCGCCGAUGGAGGUGUAGCGACUAGACGGCACCCACCUAAGGCUAACGGUAUGGUGAAGGCAUAGUCAAGGGAGUGGCGAAAGUCACACAAACCGG [C82G A111G A120C A145U C150G C169A] | 0.00918
GUGCCUUGCGCCGGGAAACCACGCAAGGGAUGGUGUCAAAUUCGGCGAAACCUAAGCGCCCGCCCGGGCGUAUGGCAACGCGGAGCCAAGCUUCGGCGCCUGCGCCGAUGGAGGUGUAGCGACUAGACGGCACCCACCUAAGGCUAACGGUAUGGUGAAGGCAUAGUCUAGGGAGUGGCGAAAGUCACACAAACCGG [C82G A111G A120C A145U C150G C169U] | 0.00899
GUGCCUUGCGCCGGGAAACCACGCAAGGGAUGGUGUCAAAUUCGGCGAAACCUAAGCGCCCGCCCGGGCGUAUGGCAACGCGGAGCCAAGCUUCGGCGCCUGCGCCGAUGGAGGUGUAGCGACUAGACGGCACCCACCUAAGGCUAACGGUAUGGUGAAGGCAUAGUCGAGGGAGUGGCGAAAGUCACACAAACCGG [C82G A111G A120C A145U C150G C169G] | 0.00697
GUGCCUUGCGCCGGGAAACCACGCAAGGGAUGGUGUCAAAUUCGGCGAAACCUAAGCGCCCGCCCGGGCGUAUGGCAACGCGGAGCCAAGCUUCGGCGCCUGCGCCGAUGGAGGUGUAGCGACUAGACGGCACCCACCUAAGGCUAACGUUAUGGUGAAGGCAUAGUCGAGGGAGCGGCGAAAGUCACACAAACCGG [C82G A111G A120C A145U C150U C169G U176C] | 0.0179
GUGCCUUGCGCCGGGAAACCACGCAAGGGAUGGUGUCAAAUUCGGCGAAACCUAAGCGCCCGCCCGGGCGUAUGGCAACGCGGAGCCAAGCUUCGGCGCCUGCGCCGAUGGAGGUGUAGCGACUAGACGGCACCCACCUAAGGCUAACGUUAUGGUGAAGGCAUAGUCGAGGGAGGGGCGAAAGUCACACAAACCGG [C82G A111G A120C A145U C150U C169G U176G] | 0.00596
GUGCCUUGCGCCGGGAAACCACGCAAGGGAUGGUGUCAAAUUCGGCGAAACCUAAGCGCCCGCCCGGGCGUAUGGCAACGCGGAGCCAAGCUUCGGCGCCUGCGCCGAUGGAGGUGUAGCGACUAGACGGCACCCACCUAAGGCUAACGUUAUGGUGAAGGCAUAGUCGAGGGAGAGGCGAAAGUCACACAAACCGG [C82G A111G A120C A145U C150U C169G U176A] | 0.0171
GUGCCUUGCGCCGGGAAACCACGCAAGGGAUGGUGUCAAAUUCGGCGAAACCUAAGCGCCCGCCCGGGCGUAUGGCAACGCGGAGCCAAGCUUCGGCGCCUGCGCCGAUGGAGGUGUAGCGACUAGACGGCACCCACCUAAGGCUAACGGUAUGGUGAAGGCAUAGUCGAGGGAGCGGCGAAAGUCACACAAACCGG [C82G A111G A120C A145U C150G C169G U176C] | 0.0102
GUGCCUUGCGCCGGGAAACCACGCAAGGGAUGGUGUCAAAUUCGGCGAAACCUAAGCGCCCGCCCGGGCGUAUGGCAACGCGGAGCCAAGCUUCGGCGCCUGCGCCGAUGGAGGUGUAGCGACUAGACGGCACCCACCUAAGGCUAACGGUAUGGUGAAGGCAUAGUCGAGGGAGAGGCGAAAGUCACACAAACCGG [C82G A111G A120C A145U C150G C169G U176A] | 0.00957
GUGCCUUGCGCCGGGAAACCACGCAAGGGAUGGUGUCAAAUUCGGCGAAACCUAAGCGCCCGCCCGGGCGUAUGGCAACGCGGAGCCAAGCUUCGGCGCCUGCGCCGAUGGAGGUGUAGCGACUAGACGGCACCCACCUAAGGCUAACGGUAUGGUGAAGGCAUAGUCGAGGGAGGGGCGAAAGUCACACAAACCGG [C82G A111G A120C A145U C150G C169G U176G] | 0.00515
GUGCCUUGCGCCGGGAAACCACGCAAGGGAUGGUGUCAAAUUCGGCGAAACCUAAGCGCCCGCCCGGGCGUAUGGCAACGCGGAGCCAAGCUUCGGCGCCUGCGCCGAUGGAGGUGUAGCGACUAGACGGCACCCACCUAAGGCUAACGAUAUGGUGAAGGCAUAGUCUAGGGAGGGGCGAAAGUCACACAAACCGG [C82G A111G A120C A145U C150A C169U U176G] | 0.00626
GUGCCUUGCGCCGGGAAACCACGCAAGGGAUGGUGUCAAAUUCGGCGAAACCUAAGCGCCCGCCCGGGCGUAUGGCAACGCGGAGCCAAGCUUCGGCGCCUGCGCCGAUGGAGGUGUAGCGACUAGACGGCACCCACCUAAGGCUAACGAUAUGGUGAAGGCAUAGUCUAGGGAGCGGCGAAAGUCACACAAACCGG [C82G A111G A120C A145U C150A C169U U176C] | 0.0136
